Measurements taken from the DeepSol protein solubility set.

Test: soluble on expression in E. coli; label from the status in PepcDB or PDB records

Row | Sequence | soluble on expression in E. coli
1 | QPSLLDRLVDDEPWRRSEAPEAALLTHAGLRAAVLRDLRWLLNTVNLASSQDLAPYRHVPASSVNFGVRAMAGRRMSEIDWVDVETSIRDAIAAFEPRILESSVEVRCVSDTRTLEHHNVLSLEIRGMLWCVPHPREFLFRTDIDLE | not soluble
2 | MGSDKIHHHHHHMFETITPESIKENILNELALVDVREGSYTNNLVSPTALAIWKLYDSLNALIPMVYVDETSGVYIDKKAAHYGITRKSGTKATAVLHFTGVDGKVVPKGTVFLTGDGLEFVTESAVTITAGAARTTAIAAEAGEAYNVPGGSITQQIVSISGLTGVTNDAAVGGTDPESDKSLVERLYAYLRKPATSGNVYHYEQWALAVDGVGGVKVAPLWNGPGTVKVLIVSPAKAPVDQEVVTRCADHIQQNRPIGAAVTVESASALMINVEATITIESTTTKSAVKEAFANSLNAYLQSIAFEKYELIYNRLAFMLLDIEGVIDYEDLTVNGGTSNITIAANEVPVAGMVVIS | not soluble
3 | MSLGPVVHQTSSRFRRRSAQPTWDMSDGCADAIAFRVDSEGIKLHGFGIYLPTEPDRRNFVGEIMMLSPDSSEKWTCLLRVTAEMSSEEKEVGIVRFPEYVLLSPGVTYAVKVNMMKNTKTFCGEGGVTQVHLLNGARLFFSGCSMSQNGTTVQRGQLPYLIYSILDQSNSLQIKQEGHHHHHH | soluble
4 | MIREAQRSELPAILELWLESTTWGHPFIKANYWRDCIPLVRDAYLANAQNWVWEEDGKLLGFVSIMEGRFLAAMFVAPKAVRRGIGKALMQYVQQRYPHLMLEVYQKNQPAIDFYRAQGFHIVDCAWQDETQLPTWIMSWPVVQTL | not soluble
5 | MTAYAKWSSCFQNGIDSWNNLTTTAEFLNHAGNISSNCKIILDLNIVKLSDSKFYISPQVQKSLTHATVGISSNFEAESQLKKVLELSSHHFLICQLFQRLPIINIFGATPKLSERERELFQKIGNYYPVAIGTKSGLVNVTMKPQYNYSLNDSAVPSSKSEFQLDLIYFLKDVLKQDFYYSIWFNIFFDELPNMLHRNRNFDENRITLCQININIDNDQKTNMKQFFKSLISDKRYVIIFEVVNDYGVLFLINFDNTTCRKKLGIVRNV | not soluble
6 | MPGTTDQIDVNVEVKEKPTGAVMFGAGYSNMEGLILSGSVAQDNIFGTGKFVNLMVNTGSVNKTYSLSYTDPYFTKDGVTAGLDLYKRVLNTRTLSSVMNFNTDTLGAGLRFGIPINENDSIMGGLGAEQTTIDLGPDSPQRNIDFVNKFGRTTINIPATLSWRRDGRDSAIWTTSGTTQRVFAEVGLPGGDLTYYKLSYDLRWYFPITEIFTLMLNGELGYGDGYSGKELPFFKNFFAGGNTSVRGYNISSLGPRDATNRTLGGNKRAVGNIEVLFPMPGMRNDRTVRLSAFLDGGTVWGPGGVRPDQEGLRYSAGIAVTWISPMGPLKISVAQPLNSQPGDNIQRFQFQFGQQFLEHHHHHH | soluble
7 | MGSSHHHHHHSSGLVPRGSHMAEFRFIKTSLDGAIIIEPEVYTDERGYFMETFNEAIFQENGLEVRFVQDNESMSVRGVLRGLHFQREKPQGKLVRVIRGEIFDVAVDLRKNSDTYGEWTGVRLSDENRREFFIPEGFAHGFLALSDECIVNYKCTELYHPEYDSGIPWDDPDIGIDWPLEMVDDLIISEKDRNWKPLRENPVYL | soluble
8 | GPGSMSASGSGVAAIYGRAEEAQNAPVKLQPVPAFELYKAAREEELCSYRSLCRVLCMHSGGKLTKQQRRILEDMREELCLPTERAEAELAAAREDVLVTSVAASGVLKRRQDFFDGVTDVPLDTLSYAESAKDDNNSLYVAQTKVARTEQIVGGVHGRHAAPSKMSIREIHKNLERIGREVAATSSKLLYCTSVVDQQAYRNVLQQKREQLQAMLREVEDAPPDMSGIASVMPSEHVY | soluble
9 | MKPTNKAQDDDAVFALSTEVNHKLDLHQSSAEALRLAGVYTRQSCVLDLYHGYRSDDEDTEPDEEDGRLQTVREYHENGMLKLMRTFVRRLRRDATDPTAESSYYDRVVEEKHYDPSGICRVDMHFALGQPYLYRKHYYPNNRLKSEKVFFVEDEETMRARKVGHWRTYYENGNIQSEIIYNKDGVRCGFCKRYAIDGAIEWVKDYTREQEERLQAFNAKRGNLDLTVTDAARVLGLEGDWCSHVVNRTFRSKCAPLHPDWRRTAGDKAGETWEEEQRTEAFIRLSRAREVLLKFLETHPRECSCERGGA | not soluble
10 | PRTVKELTVSAGDNLIITLPDNEVELKAFVAPAPPVETTYNYEWNLISHPTDYQGEIKQGHKQTLNLSQLSVGLYVFKVTVSSENAFGEGFVNVTVKPAR | soluble
11 | MTFEEKRKHLETTYPNKRTPESRAKSREILKLIADNLEMFPIASPESSSSKAKTDPMSRLEHGSEFNDLTVPRVEKLTPVSELYSIENTSLKFGTEDDFSDLSYSNTSPFQSVSTLYDQPSTPFSDDSDLEATPRTCVQ | not soluble
12 | MSLGKSNVLVTMPVAPTMEVKSFPILDQCVGQVGLNFELSFTGAPPYYYNTKIYKLENGERKLYDAKRYTSEGTRNRFSYSPPKEGNYEIVFDTVSNKLFTEPIKLEPVKEYTFKTSMRVKPSASLKLHHDLKLCLGDHSSVPVALKGQGPFTLTYDIIETFSSKRKTFEIKEIKTNEYVIKTPVFTTGGDYILSLVSIKDSTGCVVGLSQPDAKIQVRRDIPSAAFNFFEPIKEAKIKHGSVTEIPLKLSGEGPFTVKFKHMDYDGNIVKEFENKFQNSYKPALKVSKEGLYQLVDIRDSSCQGNVIYRNSLYKVSFLEKPKFAIQDNHHITKVTENLFSKEEVCQGMEGTVDLALFGSPPFILEYDLMAPNGHISTKKIQVATKYASLKLPNQIPGEYITTIKAIFDGNYGESDIHFREHQSELIIKQTVHPIPDVAFADGGKTLRACAANVDQISFLEPINLKFLQGESPFSITFSVYHESTSRTDQYTIDNIDSENFSFEKLYEGMKLGNHAITIDSVVDANGCVNSLISGPRNQILVSITDAPKIHILDPSTEYCVGDYVAYQLNGVAPFMIKYEFNGIPLKSKERSSQFVRLASEPGIISITSLQDSSSQCIVDFTNPKLKSEFDDEGHHHHHH | soluble
13 | MGSDKIHHHHHHAAEKTVVNISKVDGMPWFNRMGEGVVQAGKEFNLNASQVGPSSTDAPQQVKIIEDLIARKVDAITIVPNDANVLEPVFKKARDAGIVVLTNESPGQPSANWDVEIIDNEKFAAEYVEHMAKRMGGKGGYVIYVGSLTVPQHNLWADLLVKYQKEHYPDMHEVTRRMPVAESVDDSRRTTLDLMKTYPDLKAVVSFGSNGPIGAGRAVKEKRAKNKVAVYGMMIPSQAASLIKSGDITEGITYDPATAGYALAAVASTLLNGKTIEPGFELKELGKAEVDSDKHIIRFHKVLLVNKDNIDSLY | not soluble
14 | MGSDKIHHHHHHMTASLLTFAKGGVHPPESKEITEHLAIEKMPLPAQVEIPLLQHFGAPCQPLVNKKDRVEEGDLIGQVQGLGANVHASITGTVTNVGTSIGPTSLNIPSVTIDRDTEAPDKIYTPSDWRGLSPQELLQKIKDGGIVGIGGAGFPAHVKLSPPPDAKVDTLVLNGAECEPYLTCDHRVMLEKPEEVVEGAKILLHVLGIKDCYIGVESNKNDAIDALRKTIEQQKLDGVKIQVSPLKVKYPQGSEKQLIESTTGRKVPGGGLPFDVGVIVQNVGTAKAVFDAVVLNKPLYEKVITISGRGISRPANLQVRIGTRIRDIVEYLGGTKADLAKIVMGGPMMGFAVSSLDIPVTKTCSGILFLTRDEIDEQPYGPCIRCGWCVEACPMGLSPNEIGLYVEAGRAADTAPFGVFDCFECGSCAFVCPAKRPLVQFIRLAKQKARK | not soluble
15 | MKLYNLKDHNEQVSFAQAVTQGLGKQQGLFFPHDLPEFSLTEIDEMLNQDFVSRSAKILSAFIGDEIPQQILEERVRAAFAFPAPVAQVESDVGCLELFHGPTLAFKDFGGRFMAQMLTHISGDKPVTILTATSGDTGAAVAHAFYGLENVRVVILYPRGKISPLQEKLFCTLGGNIETVAIDGDFDACQALVKQAFDDEELKTALGLNSANSINISRLLAQICYYFEAVAQLPQGARNQLVISVPSGNFGDLTAGLLAKSLGLPVKRFIAATNVNDTVPRFLHDGKWAPKATQATLSNAMDVSQPNNWPRVEELFRRKIWRLTELGYAAVDDTTTQQTMRELKAKGYISEPHAAVAYRALRDQLNPGEYGLFLGTAHPAKFKESVESILGETLALPEALAERADLPLLSHHLPADFAALRKLMMTRQ | not soluble
16 | SMGAGGGGSAEQLDALVKKDKVVVFLKGTPEQPQCGFSNAVVQILRLHGVRDYAAYNVLDDPELRQGIKDYSNWPTIPQVYLNGEFVGGCDILLQMHQNGDLVEELKKLGIHSALLDE | soluble
17 | MSTLLAILFLLPFYTFSLNKKPEEVLKGLYPSAEIEVEDIILTEEQVKEVEKLSGTKLNTRFVTFYIVKKDGKVLAYGYVDIHRVRTKPEAVLYVISPKGKIELIEVLAFHEPLEYLPPKNWLKLFEGKDINAPLRVKKDIPNVTGATLTARAITKNAKKVLALWQVLFGGKE | not soluble
18 | MHHHHHHSSGVDLGTENLYFQSMSRVLQAEELHEKALDPFLLQAEFFEIPMNFVDPKEYDIPGLVRKNRYKTILPNPHSRVCLTSPDPDDPLSSYINANYIRGYGGEEKVYIATQGPIVSTVADFWRMVWQEHTPIIVMITNIEEMNEKCTEYWPEEQVAYDGVEITVQKVIHTEDYRLRLISLKSGTEERGLKHYWFTSWPDQKTPDRAPPLLHLVREVEEAAQQEGPHCAPIIVHCSAGIGRTGCFIATSICCQQLRQEGVVDILKTTCQLRQDRGGMIQTCEQYQFVHHVMSLYEKQLSHQS | soluble
19 | MSVASNRDAVVTARRRFFGEGRSVDGMLAAPILRSWQRCAGQGLDASRSPLVEPPTARELREFQERHDRLGRLARPELNALQGDARLTGSVVILTDAAGVVLDMIGSDEFAGRAAQVALRPGVSWSEADTGTNAIGTALVERQPIAVHGAEHFFERHRILACAAAPLIDPRGVVAGALDMTGPAAIRHVHALGLMRLAAEQIEHRFFTEGFEHCTMLRLHTDRALLGTPREGVLAFADGVLVGANRHGLDLMNLDWPALDLARLETLLPGVRPSDQIQMLRGPRGTRLWGRLVDPLRRSPRAPAASMPAAVPAAPAGEVEPILDAEMMAQLSRTVRLVEAGIPVLLLGETGSGKDVFARRVHAESARRNKPFVPVNCAALPEGLIESELFGYEAGAFTGARRQGAPGLLRQADGGVLFLDEIGDMPLSLQSRLLRVLQDKQISPLGGGRPVPVDFALICATHQPLGTLLAAGAFRQDLYFRIAQYVVERPPVRHHPDRLALVRTLWRQLGGEDAGVQLSAEVERVLAAYNWPGNYRQLVGTLRALLVLGEPGHPVEVAALPAEITAAAGAVESQVSEMLPGTSLAEQTRSVLQAALDASGGNVSRAARRLGIDRSTYYRRLLKDKDRGR | not soluble
20 | MNHTSFRAIVVNETENHQFVRKVVEREVSSLPEGDVFIQVHYSSLNYKDALSATGNKGVTRTYPHTPGIDAAGVVVSSEDATIKAGDQVIVTGYDLGMNTSGGFGEYIRVPSSWVVPLPEGMSLKESMMYGTAGFTAALSVYKLIGAGVKPSMGDVLVTGATGGVGSVAVSILSKLGFNVVGATGKMEEEDMLLRLGAKKVIHRAELNDESGSPMLKGIYAGVIDTVGGHMLETALKTVKYGGCVTTCGNVAGQELQTTVYPFILRGISLLGIDSVQCPVDVRRDVWTLLAKEWGNKELLSYTEECTLEELEKKFALILQGKLKGRTVVKI | not soluble
21 | MAHHHHHHMSSSDGQGMRAVILVGGFGTRLRPLTLTTPKPLVPFCNKPMIIHQIEALKAVGVTEVILAVAYRPEAMKEQMDEWSRKLGVLFVFSVEEEPLGTAGPLALARDILMQDDKPFFVLNSDVTCPFPMQELLDFHKAHGGEGTIMVSQVTQWEKYGVVVYSPQNYQIERFVEKPSSFLGDRINAGIYIFNKSILDRIPPCRTSIEKEIFPSMAAEGQLYAFNLEGFWMDIGQPKDYILGMTKYIPFLVHSNRETEKLHTEATKHQRGGRFTVIGASLIDPSAKIGDGAVIGPYASIGANCVIGESCRIDNAAILENSKVGKGSMVSRSIVGWNNRIGSWCHIKDISVLGDDVEVEDGVVLIGTKVLPNKDVGEHHFEPGIIM | soluble
